Results reported in patent US20220259296A1 (Boehringer Ingelheim, published 2022).

B1: M0123 (antibody, V domains shown)
VH: QSVKESEGRLVTPGTPLTLTCTASGFTIGSYHMSWVRQAPGKGLEWIGIIYTDGNTDYANWAKGRFTISKTSTTMDLKMTSLTAADTATYFCARRGYADYGYTFNLWGQGTLVTISS
VL: ELVLTQPASVQVNLGQTVSLTCTADTLSRNYASWYQQKPGQAPVLLIYRDTSRPSGVPDRFSGSSSGNTATLTISGAQAGDEADYYCATGDGSGSSYQFVFGGGTQLTVTG
notes: Wild-type rabbit VH/VL from a rabbit scFv phage library; A separate 'scFv-derivative of M0123 (26 kDa)' was used only in the Bruch's membrane diffusion test; also called anti-C3 antibody M0123
B2: M0124 (antibody, V domains shown)
VH: QSVKESGGRLVTPGTPLTLTCTVSGIDLSRYWMNWVRQAPGKGLEWIGYITTNDKTYYANWAKGRYTISKTSSTTVDLKMTSLTTEDTATYFCARRSSGAYDIWGPGTLVTISS
VL: QPVLTQSPSASATLGASAKLTCTLSSAHKTYYIEWYQQQQGEAPRYLMQLKSDGTYTKGTGVPDRFSGSSSGADRYLIISSVQAEDEADYICGVTGGNVYVFGGGTQLTVTG
notes: Wild-type rabbit VH/VL from a rabbit scFv phage library; ELISA detection used an anti-human Kappa HRP or an anti-His Tag HRP antibody; also called anti-C3 antibody M0124
B3: M0228 (VHH)
VHH: EVQLVESGGGLVQAGGSLRLSCAASGRTINDYTMGWFRQAPGKDREFVSAINWRGSSTYYADSVKGRFTISRDNAKKTIYLQMNLLKPEDTAVYYCARQVSPYVELTATAAYWGQGTQVTVSS
notes: Wild-type llama VHH domain; also called anti-C3 antibody M0228
B4: M0122 (antibody, V domains shown)
VH: QSVKESGGRLVTPGTPLTLTCTVSGFSLYNYAMNWVRQAPGKGLEWIGIINTDGNTNYASWAKGRFTISTTSSTTVDLKITSPTTEDTATYFCPRAVGYHHHALDPWGPGTLVTVSS
VL: ELVLTQSPSVSAALGASAKLTCTLSSAHKTYTIDWYQQQQGEAPRYLMQLKSDGSYTKGTGVPDRFSGSSSGADRYLIIPSVQADDEADYYCGTDYGGGYVFGGGTQLTVTG
notes: Wild-type rabbit VH/VL from a rabbit scFv phage library; ELISA detection used an anti-human Kappa HRP or an anti-His Tag HRP antibody; also called anti-C3 antibody M0122
B5: M0251 (VHH)
VHH: EVQLVESGGGLVQAGGSLRLSCVASGHTFGNWAMGWFRQAPGKEREFVGAIRWSVGTTNYRDSVKGRFAISRDNARNTVYLQMNRLKPEDTAVYYCAAGTPFVLARINGYDYWGQGTQVTVSS
notes: Wild-type llama VHH domain; also called anti-C3 antibody M0251

Legend:
human complement C3 [1] = molecular target: T1, human complement C3 (human, UniProt P01024 23-1663); assay: cell-based or functional assay
human complement C3 [2] = molecular target: T1, human complement C3; assay: competition ELISA on human C3; competitor: biotinylated M0123 (panel title 'Competition with M0123')
Protocol: (§1) M0251, M0228, M0122, M0123 and M0124 were tested in a pairwise combinatorial manner to identify those that target the same region (epitope) on C3. Briefly, one antibody was labelled via biotinylation and incubated together with other antibody clones in a C3 binding ELISA. Those anti-C3 antibodies that competed for the same binding region were considered to share similar epitopes and therefore to have similar functions. This information enables to reduce the number of potential antibody candidates while maintaining epitope diversity. Out of the five antibodies inhibiting all three complement pathways, M0251, M0228 and M0123 were considered to share the same epitope on C3 (FIG. 7D). Inhibiting leads were assumed to bind three different epitopes on C3 (FIG. 7A-7D).

human complement C3 [3] = molecular target: T1, human complement C3; assay: biolayer interferometry, human C3
human complement C3b = molecular target: T2, human complement C3b (human, UniProt P01024 23-667; P01024 749-1663); assay: direct ELISA, plate coated with purified human C3b
T2 construct: domain: C3b; Cleavage product of C3 (C3 without C3a)
Protocol: (§2) M0122, M0124 and M0228 were evaluated for their ability to bind both human C3 and C3b in a direct binding ELISA assay (FIG. 8A and FIG. 8B). Briefly, 96 well ELISA plates were coated with purified native human C3 or C3b (Complement Technology, A113 and A114). Serial dilutions of antibody molecules were added to the plate and detected by a rabbit anti-human Kappa HRP antibody (Abcam, ab202549) or a rabbit anti-His Tag HRP antibody (Abcam, ab1187). M0122, M0124 and M0228 show high affinity binding to both human C3 and C3b.

human complement C3 [4] = molecular target: T1, human complement C3; assay: direct ELISA, plate coated with purified native human C3
Protocol: as §2

cynomolgus monkey C3 = molecular target: T3, cynomolgus monkey C3 (cynomolgus monkey (Macaca fascicularis)); assay: ELISA, cyno C3 captured from cynomolgus serum by coated polyclonal goat antiserum
T3 construct: mature; Native protein from serum; also called cyno C3; cynomolgus C3
Protocol: Antibodies identified as capable of inhibiting all three complement pathways were assessed for their ability to bind cynomolgus monkey C3 in ELISA. Briefly, 96 well ELISA plates were coated with polyclonal goat antiserum deemed to be cross-reactive to cyno C3 and followed by a secondary association with a custom preparation of cynomolgus monkey serum (BioIVT, NB-151558). Serial dilutions of the antibody molecules were added to the ELISA plate and antibodies binding to cyno C3 were detected with a rabbit anti-human Kappa HRP antibody (Abcam, ab202549) or a mouse anti-His Tag HRP antibody (R&D Systems, MAB050H). Leads M0122, M0124 and M0251 show binding in a dose response manner to cynomolgus monkey C3.

human complement C3 [5] = molecular target: T1, human complement C3; assay: competition ELISA on human C3; competitor: biotinylated M0122 (panel title 'Competition with M0122')
Protocol: as §1

human complement C3 [6] = molecular target: T1, human complement C3; assay: competition ELISA on human C3; competitor: biotinylated M0251 (panel title 'Competition with M0251')
Protocol: as §1

T1 sequence (P01024 23-1663): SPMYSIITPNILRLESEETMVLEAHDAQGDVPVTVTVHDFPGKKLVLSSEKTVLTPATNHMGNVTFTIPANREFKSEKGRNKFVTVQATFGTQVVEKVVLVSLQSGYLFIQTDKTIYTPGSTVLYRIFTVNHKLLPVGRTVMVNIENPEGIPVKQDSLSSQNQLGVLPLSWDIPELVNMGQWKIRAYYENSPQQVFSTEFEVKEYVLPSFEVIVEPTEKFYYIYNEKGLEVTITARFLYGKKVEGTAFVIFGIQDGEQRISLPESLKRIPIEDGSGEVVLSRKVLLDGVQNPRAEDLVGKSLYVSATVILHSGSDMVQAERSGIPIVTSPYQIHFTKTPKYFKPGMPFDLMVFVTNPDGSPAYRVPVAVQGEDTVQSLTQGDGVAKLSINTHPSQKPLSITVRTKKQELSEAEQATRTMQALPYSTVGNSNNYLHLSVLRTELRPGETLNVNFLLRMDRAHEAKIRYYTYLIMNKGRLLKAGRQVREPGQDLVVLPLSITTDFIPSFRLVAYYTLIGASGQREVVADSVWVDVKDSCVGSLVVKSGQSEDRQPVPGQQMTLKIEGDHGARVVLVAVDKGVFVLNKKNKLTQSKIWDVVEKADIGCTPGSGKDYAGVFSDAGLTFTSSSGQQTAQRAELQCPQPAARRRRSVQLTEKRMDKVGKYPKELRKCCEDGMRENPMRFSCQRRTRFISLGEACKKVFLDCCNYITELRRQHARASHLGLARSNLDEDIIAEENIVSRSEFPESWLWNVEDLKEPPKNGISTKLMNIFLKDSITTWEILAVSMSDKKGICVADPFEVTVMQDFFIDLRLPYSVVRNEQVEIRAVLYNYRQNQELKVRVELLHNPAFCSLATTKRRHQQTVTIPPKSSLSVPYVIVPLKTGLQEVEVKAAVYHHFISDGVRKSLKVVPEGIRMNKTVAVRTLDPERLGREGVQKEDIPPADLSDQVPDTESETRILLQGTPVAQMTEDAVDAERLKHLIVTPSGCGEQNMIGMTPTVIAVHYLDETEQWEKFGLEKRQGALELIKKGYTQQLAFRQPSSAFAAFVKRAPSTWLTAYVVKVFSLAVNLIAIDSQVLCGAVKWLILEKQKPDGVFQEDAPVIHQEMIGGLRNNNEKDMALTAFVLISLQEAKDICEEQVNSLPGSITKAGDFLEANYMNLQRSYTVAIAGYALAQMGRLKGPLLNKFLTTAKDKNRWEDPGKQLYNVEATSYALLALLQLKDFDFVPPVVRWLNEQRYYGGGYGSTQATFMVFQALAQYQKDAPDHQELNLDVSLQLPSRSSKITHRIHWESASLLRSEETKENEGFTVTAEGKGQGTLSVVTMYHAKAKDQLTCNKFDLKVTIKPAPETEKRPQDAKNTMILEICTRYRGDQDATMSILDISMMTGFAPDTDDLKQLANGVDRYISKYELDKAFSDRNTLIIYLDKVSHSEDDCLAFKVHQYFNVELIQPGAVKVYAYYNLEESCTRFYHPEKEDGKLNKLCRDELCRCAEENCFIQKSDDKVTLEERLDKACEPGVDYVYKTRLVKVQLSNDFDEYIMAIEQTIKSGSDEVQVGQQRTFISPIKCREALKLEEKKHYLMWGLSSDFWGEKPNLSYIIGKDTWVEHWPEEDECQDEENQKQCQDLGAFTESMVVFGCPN
T2 sequence (P01024 23-667 limits assumed, chain 1 of 2): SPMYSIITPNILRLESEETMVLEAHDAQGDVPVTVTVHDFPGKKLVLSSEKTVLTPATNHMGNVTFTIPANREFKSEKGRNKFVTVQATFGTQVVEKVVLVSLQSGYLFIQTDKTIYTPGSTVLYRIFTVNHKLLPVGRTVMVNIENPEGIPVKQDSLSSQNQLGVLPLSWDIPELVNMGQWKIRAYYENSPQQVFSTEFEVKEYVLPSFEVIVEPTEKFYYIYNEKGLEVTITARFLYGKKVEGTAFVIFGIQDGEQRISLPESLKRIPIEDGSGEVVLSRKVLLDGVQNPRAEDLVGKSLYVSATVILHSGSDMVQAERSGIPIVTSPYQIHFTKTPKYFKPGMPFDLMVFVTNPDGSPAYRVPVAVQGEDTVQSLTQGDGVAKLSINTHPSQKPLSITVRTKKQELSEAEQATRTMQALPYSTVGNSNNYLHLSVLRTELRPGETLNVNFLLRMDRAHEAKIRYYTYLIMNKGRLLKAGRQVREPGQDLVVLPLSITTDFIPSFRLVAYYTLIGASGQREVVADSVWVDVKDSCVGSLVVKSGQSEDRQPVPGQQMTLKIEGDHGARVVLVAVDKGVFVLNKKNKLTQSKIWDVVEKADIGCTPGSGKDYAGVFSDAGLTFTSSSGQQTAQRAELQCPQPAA
T2 sequence (P01024 749-1663 limits assumed, chain 2 of 2): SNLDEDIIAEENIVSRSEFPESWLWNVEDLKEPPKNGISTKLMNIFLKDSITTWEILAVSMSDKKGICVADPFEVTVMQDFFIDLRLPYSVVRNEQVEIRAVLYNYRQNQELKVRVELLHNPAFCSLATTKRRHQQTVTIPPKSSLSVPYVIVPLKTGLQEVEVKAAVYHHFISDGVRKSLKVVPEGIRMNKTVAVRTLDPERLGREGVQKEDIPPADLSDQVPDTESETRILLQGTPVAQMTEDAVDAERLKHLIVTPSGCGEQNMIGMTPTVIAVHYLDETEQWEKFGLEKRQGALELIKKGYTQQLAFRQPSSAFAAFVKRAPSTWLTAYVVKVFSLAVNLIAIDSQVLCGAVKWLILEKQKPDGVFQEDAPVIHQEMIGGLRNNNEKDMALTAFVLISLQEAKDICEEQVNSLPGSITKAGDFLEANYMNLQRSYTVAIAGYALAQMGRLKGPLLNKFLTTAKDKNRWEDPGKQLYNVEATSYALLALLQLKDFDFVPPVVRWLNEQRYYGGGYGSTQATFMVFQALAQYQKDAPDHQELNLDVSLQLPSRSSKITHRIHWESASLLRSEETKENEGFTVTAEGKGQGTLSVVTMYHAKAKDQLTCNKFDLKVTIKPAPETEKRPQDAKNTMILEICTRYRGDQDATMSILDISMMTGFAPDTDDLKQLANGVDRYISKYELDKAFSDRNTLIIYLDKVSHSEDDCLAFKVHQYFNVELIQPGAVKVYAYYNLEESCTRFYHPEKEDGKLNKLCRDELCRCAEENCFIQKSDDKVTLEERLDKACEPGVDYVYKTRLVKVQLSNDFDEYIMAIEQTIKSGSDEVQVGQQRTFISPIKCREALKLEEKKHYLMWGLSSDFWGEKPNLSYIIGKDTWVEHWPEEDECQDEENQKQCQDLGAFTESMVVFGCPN

Row | Binder | inhibition of classical, lectin and alternative complement pathways in human serum (Wieslab Complement system Screen, C5b-C9 neoantigen) (human complement C3 [1]) [%] | IC50 (read off the curve) (human complement C3 [2]) [nM] | Kd (human complement C3 [3]) [nM] | koff (human complement C3 [3]) [s⁻¹] | kon (human complement C3 [3]) [M⁻¹ s⁻¹] | EC50 (read off the curve) (human complement C3b) [ng/mL] | EC50 (read off the curve) (human complement C3 [4]) [ng/mL] | EC50 (read off the curve) (cynomolgus monkey C3) [nM] | IC50 (read off the curve) (human complement C3 [5]) [nM] | IC50 (read off the curve) (human complement C3 [6]) [nM]
1 | B1 | ≥ 90 | ~9 |  |  |  |  |  |  |  | 
2 | B2 | ≥ 90 |  | 0.0124 | 5.18e-05 | 4.16e+06 | ~40 | ~70 | ~3 |  | 
3 | B3 | ≥ 90 | ~2 | 0.199 | 0.000111 | 557000 | ~30 | ~30 |  |  | 
4 | B4 | ≥ 90 |  | 0.0528 | 4.7e-06 | 89000 | ~40 | ~30 | ~2 | ~20 | 
5 | B5 | ≥ 90 | ~20 |  |  |  |  |  | ~5 |  | ~4
